Measured values published in US20060148057.

B1: HA-tagged ASK1-WT (protein)
chain: MSTEADEGITFSVPPFAPSGFCTIPEGGICRRGGAAAVGEGEEHQLPPPPPGSFWNVESAAAPGIGCPAATSSSSATRGRGSSVGGGSRRTTVAYVINEASQGQLVVAESEALQSLREACETVGATLETLHFGKLDFGETTVLDRFYNADIAVVEMSDAFRQPSLFYHLGVRESFSMANNIILYCDTNSDSLQSLKEIICQKNTMCTGNYTFVPYMITPHNKVYCCDSSFMKGLTELMQPNFELLLGPICLPLVDRFIQLLKVAQASSSQYFRESILNDIRKARNLYTGKELAAELARIRQRVDNIEVLTADIVINLLLSYRDIQDYDSIVKLVETLEKLPTFDLASHHHVKFHYAFALNRRNLPGDRAKALDIMIPMVQSEGQVASDMYCLVGRIYKDMFLDSNFTDTESRDHGASWFKKAFESEPTLQSGINYAVLLLAAGHQFESSFELRKVGVKLSSLLGKKGNLEKLQSYWEVGFFLGASVLANDHMRVIQASEKLFKLKTPAWYLKSIVETILIYKHFVKLTTEQPVAKQELVDFWMDFLVEATKTDVTVVRFPVLILEPTKIYQPSYLSINNEVEEKTISIWHVLPDDKKGIHEWNFSASSVRGVSISKFEERCCFLYVLHNSDDFQIYFCTELHCKKFFEMVNTITEEKGRSTEEGDCESDLLEYDYEYDENGDRVVLGKGTYGIVYAGRDLSNQVRIAIKEIPERDSRYSQPLHEEIALHKHLKHKNIVQYLGSFSENGFIKIFMEQVPGGSLSALLRSKWGPLKDNEQTIGFYTKQILEGLKYLHDNQIVHRDIKGDNVLINTYSGVLKISDFGTSKRLAGINPCTETFTGTLQYMAPEIIDKGPRGYGKAADIWSLGCTIIEMATGKPPFYELGEPQAAMFKVGMFKVHPEIPESMSAEAKAFILKCFEPDPDKRACANDLLVDEFLKVSSKKKKTQPKLSALSAGSNEYLRSISLPVPVLVEDTSSSSEYGSVSPDTELKVDPFSFKTRAKSCGERDVKGIRTLFLGIPDENFEDHSAPPSPEEKDSGFFMLRKDSERRATLHRILTEDQDKIVRNLMESLAQGAEEPKLKWEHITTLIASLREFVRSTDRKIIATTLSKLKLELDFDSHGISQVQVVLFGFQDAVNKVLRNHNIKPHWMFALDSIIRKAVQTAITILVPELRPHFSLASESDTADQEDLDVEDDHEEQPSNQTVRRPQAVIEDAVATSGVSTLSSTVSHDSQSAHRSLNVQLGRMKIETNRLLEELVRKEKELQALLHRAIEEKDQEIKHLKLKSQPIEIPELPVFHLNSSGTNTEDSELTDWLRVNGADEDTISRFLAEDYTLLDVLYYVTRDDLKCLRLRGGMLCTLWKAIIDFRNKQT
B2: Flag-tagged Trx-WT (protein)
chain: MVKQIESKTAFQEALDAAGDKLVVVDFSATWCGPCKMIKPFFHSLSEKYSNVIFLEVDVDDCQDVASECEVKCMPTFQFFKKGQKVGEFSGANKEKLEATINELV

Assays:
[1] = target: GST-SOCS3-DC (1-138aa, deletion of the C-terminal SOCS box) [GST: P08515]
[2] = target: GST-SOCS3 (full-length) [GST: P08515]
[3] = target: GST-SOCS3-N (1-45aa) [GST: P08515]
[4] = target: endogenous ASK1 of bovine aorta endothelial cells (BAEC), A0AAA9

Protein	phosphorylation in an in vitro kinase assay [1]	phosphorylation in an in vitro kinase assay [2]	phosphorylation in an in vitro kinase assay [3]	ASK1 ubiquitination and degradation (Western blot; IP anti-ASK1, blot anti-Ub) [4]	ASK1 ubiquitination and degradation (Western blot with anti-Flag) (Flag-ASK1-ΔN, Q99683)
B1	only the full-length GST-SOCS3 was phosphorylated by ASK1	only the full-length GST-SOCS3 was phosphorylated by ASK1	only the full-length GST-SOCS3 was phosphorylated by ASK1	–	–
B2	–	–	–	Trx expression significantly increased ASK1 ubiquitination	expression of Trx did not induce ubiquitination and degradation of ASK1 -ΔN, a mutant ASK1 lacking the N-terminal Trx-binding domain
